Laboratory results from article PMC7060199, “DJ-1 suppresses ferroptosis through preserving the activity of S-adenosyl homocysteine hydrolase” (Nature Communications, 2020).

B1: S-adenosyl homocysteine hydrolase (enzyme, human (endogenous in H1299), UniProt P23526 1-432, looked up)
chain: MSDKLPYKVADIGLAAWGRKALDIAENEMPGLMRMRERYSASKPLKGARIAGCLHMTVETAVLIETLVTLGAEVQWSSCNIFSTQDHAAAAIAKAGIPVYAWKGETDEEYLWCIEQTLYFKDGPLNMILDDGGDLTNLIHTKYPQLLPGIRGISEETTTGVHNLYKMMANGILKVPAINVNDSVTKSKFDNLYGCRESLIDGIKRATDVMIAGKVAVVAGYGDVGKGCAQALRGFGARVIITEIDPINALQAAMEGYEVTTMDEACQEGNIFVTTTGCIDIILGRHFEQMKDDAIVCNIGHFDVEIDVKWLNENAVEKVNIKPQVDRYRLKNGRRIILLAEGRLVNLGCAMGHPSFVMSNSFTNQVMAQIELWTHPDKYPVGVHFLPKKLDEAVAEAHLGKLNVKLTKLTEKQAQYLGMSCDGPFKPDHYRY
notes: S-adenosyl homocysteine hydrolase (SAHH) of H1299 cells; also called SAHH; source: H1299 cell lysate (control KD and DJ-1 KD)
B2: SAHH in HEK293T cells (enzyme, UniProt P23526 1-432, looked up)
chain: B1 chain
notes: S-adenosyl homocysteine hydrolase (SAHH) in HEK293T cells with DJ-1 overexpression; source: HEK293T cells

Tests used:
[1] = target: the molecule itself; experiment: cross-linking; cells incubated with 2 mM DSS for 30 min at 25 C, quenched with 1 M Tris-HCl pH 7.4; western blot; control and DJ-1 KD
[2] = target: the molecule itself; experiment: not stated; HEK293T cells with DJ-1 overexpression (Supplementary Fig. 6j)

Row | Protein | stoichiometry N [1] | stoichiometry N [2]
1 | B1 | 4 | –
2 | B2 | – | 4
